Assay results as given in US20230331821A1.
Where two headings read alike, the source gives them in different places.

What was measured:
Conditions in all cases: remark: other sources report otherwise
[1] = target: T1, SARS-CoV-2 Spike (S) protein, strain BetaCoV/Wuhan-Hu-1/2019, full length (SARS-CoV-2 Wuhan-Hu-1), P0DTC2
[2] = target: T1, SARS-CoV-2 Spike (S) protein, strain …; assay: flow cytometry, ExpiCHO cells expressing SARS-CoV-2 S; % positive cells
[3] = target: T1, SARS-CoV-2 Spike (S) protein, strain …; assay: flow cytometry, ExpiCHO cells transfected with SARS-CoV-2 S; MFI (AF647)
[4] = target: T1, SARS-CoV-2 Spike (S) protein, strain …; remark: listed apart in the source

Binder | EC50 (read off the curve) [1] [ng/mL] | EC50 (read off the curve) [2] [ng/mL] | EC50 (read off the curve) [3] [ng/mL] | POS [4]
S306 (antibody) heavy: QVQLVQSGAEVKKPGASVKVSCKASTYTFTSFGISWVRQAPGQGLEWMGWITTYSGDTNYAQKFQGRVTMTTDTSTNTAYMELRSLRSDDTAVYYCASDYFDSSGYYHSFDYWGQGTLVTVSS light: EIVLTQSPDTLSLSPGERATLSCRASQSVSSYLAWYQQRPGQAPRLLIYDASKRATGIPARFSGSGSGTDFTLTISSLEPEDFAVYYCQQRSNWPPGCSFGQGTKVEIK | 200 | 1 | 200 | –
SARS-CoV-2 S306 mAb (B cell supernatant) (antibody, V domains shown) VH: QVQLVQSGAEVKKPGASVKVSCKASTYTFTSFGISWVRQAPGQGLEWMGWITTYSGDTNYAQKFQGRVTMTTDTSTNTAYMELRSLRSDDTAVYYCASDYFDSSGYYHSFDYWGQGTLVTVSS VL: EIVLTQSPDTLSLSPGERATLSCRASQSVSSYLAWYQQRPGQAPRLLIYDASKRATGIPARFSGSGSGTDFTLTISSLEPEDFAVYYCQQRSNWPPGCSFGQGTKVEIK | – | – | – | 57.6
